Tested on: T1, MBP-SphR (Pseudomonas aeruginosa (strain PAO1?)), ORF:ae0b4f1c
T1 sequence: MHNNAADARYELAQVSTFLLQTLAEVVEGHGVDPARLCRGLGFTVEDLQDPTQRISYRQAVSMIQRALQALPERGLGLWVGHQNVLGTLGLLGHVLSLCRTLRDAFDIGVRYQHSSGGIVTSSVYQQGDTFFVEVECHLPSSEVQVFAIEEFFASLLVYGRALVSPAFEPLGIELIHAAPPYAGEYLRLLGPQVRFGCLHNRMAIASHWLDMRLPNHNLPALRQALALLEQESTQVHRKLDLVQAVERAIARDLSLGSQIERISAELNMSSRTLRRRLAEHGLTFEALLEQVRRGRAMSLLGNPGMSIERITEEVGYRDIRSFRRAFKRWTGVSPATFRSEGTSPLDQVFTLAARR
Assay: competition
Details: 10 mM Tris-HCl pH 7.5, 50 mM KCl, 1 mM DTT, 1 mM EDTA, 3 mM MgCl2, 50 ug/ml BSA, 4% glycerol, 0.05% NP-40, 50 ng/ul poly(dI-dC), 30 C, 30 min

GGTTGCCACTGTAGTGCCAGGGTGGTGGAGTCGAGGGGGGCGTAGCGGACAGGAAGGGGGTGAGCGCCGGCCATCCTGCATGGACGGCAAGGCAGGCGGGTAAAAAAAGGCCGCCTGCGT (double strand) [cerN promoter -200 to -81, unlabeled competitor]
binding: binds

Reference: paper PMC5150637
